Measured values from the supplement of paper PMC10567573.

B1: ANKRD40 (parent)
chain: YQELLRVCCCELGVNPDQVEKIRK

Variants of: B1
Assay: protein stability index of a GFP-peptide fusion (GPS, HEK-293T) (PSI 1-6); higher = more stable
Conditions: c terminus: a fixed tail appended
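Also: lentivirally expressed fusions sorted by FACS into six bins by GFP to DsRed ratio, PSI derived from sequencing read proportions per bin multiplied by bin number.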

In order of falling protein stability index:
1. EQELLRVCCCELGVNPDQVEKIRK  3.69
2. NQELLRVCCCELGVNPDQVEKIRK  3.55
3. DQELLRVCCCELGVNPDQVEKIRK  3.49
4. QQELLRVCCCELGVNPDQVEKIRK  3.28
5. HQELLRVCCCELGVNPDQVEKIRK  3.27
6. YQELDRVCCCELGVNPDQVEKIRK  3.26
7. YQELCRVCCCELGVNPDQVEKIRK  3.06
8. YQELQRVCCCELGVNPDQVEKIRK  3.04
9. YEELLRVCCCELGVNPDQVEKIRK  2.98
10. AQELLRVCCCELGVNPDQVEKIRK  2.96
11. SQELLRVCCCELGVNPDQVEKIRK  2.65
12. YQELLRHCCCELGVNPDQVEKIRK  2.59
13. YRELLRVCCCELGVNPDQVEKIRK  2.58
14. YQELLDVCCCELGVNPDQVEKIRK  2.56
15. TQELLRVCCCELGVNPDQVEKIRK  2.53
16. YQELLRDCCCELGVNPDQVEKIRK  2.53
17. YNELLRVCCCELGVNPDQVEKIRK  2.52
18. YQELARVCCCELGVNPDQVEKIRK  2.5
19. YQELLRPCCCELGVNPDQVEKIRK  2.5
20. YKELLRVCCCELGVNPDQVEKIRK  2.5
21. YDELLRVCCCELGVNPDQVEKIRK  2.47
22. YQELMRVCCCELGVNPDQVEKIRK  2.41
23. YQELKRVCCCELGVNPDQVEKIRK  2.37
24. YQELLEVCCCELGVNPDQVEKIRK  2.36
25. MQELLRVCCCELGVNPDQVEKIRK  2.29
26. YQELLRECCCELGVNPDQVEKIRK  2.28
27. YQELLQVCCCELGVNPDQVEKIRK  2.26
28. YQELLNVCCCELGVNPDQVEKIRK  2.26
29. YQSLLRVCCCELGVNPDQVEKIRK  2.26
30. YQELLGVCCCELGVNPDQVEKIRK  2.23
31. YQELLRKCCCELGVNPDQVEKIRK  2.23
32. YQPLLRVCCCELGVNPDQVEKIRK  2.21
33. YQELHRVCCCELGVNPDQVEKIRK  2.18
34. YQELLYVCCCELGVNPDQVEKIRK  2.18
35. RQELLRVCCCELGVNPDQVEKIRK  2.16
36. YQELLRACCCELGVNPDQVEKIRK  2.15
37. YQTLLRVCCCELGVNPDQVEKIRK  2.13
38. YQELLHVCCCELGVNPDQVEKIRK  2.11
39. YQELLRCCCCELGVNPDQVEKIRK  2.1
40. YQNLLRVCCCELGVNPDQVEKIRK  2.09
41. YPELLRVCCCELGVNPDQVEKIRK  2.08
42. YGELLRVCCCELGVNPDQVEKIRK  2.08
43. YQELGRVCCCELGVNPDQVEKIRK  2.05
44. YQELLSVCCCELGVNPDQVEKIRK  2.03
45. YQELLRICCCELGVNPDQVEKIRK  2.03
46. YQELLPVCCCELGVNPDQVEKIRK  2.02
47. YQELLAVCCCELGVNPDQVEKIRK  2.02
48. YQHLLRVCCCELGVNPDQVEKIRK  2.01
49. YQELNRVCCCELGVNPDQVEKIRK  1.99
50. FQELLRVCCCELGVNPDQVEKIRK  1.99
51. YQELLRQCCCELGVNPDQVEKIRK  1.97
52. KQELLRVCCCELGVNPDQVEKIRK  1.96
53. YQELLRNCCCELGVNPDQVEKIRK  1.96
54. YQKLLRVCCCELGVNPDQVEKIRK  1.96
55. CQELLRVCCCELGVNPDQVEKIRK  1.95
56. YAELLRVCCCELGVNPDQVEKIRK  1.94
57. YQELLCVCCCELGVNPDQVEKIRK  1.92
58. YQELTRVCCCELGVNPDQVEKIRK  1.91
59. YQELLKVCCCELGVNPDQVEKIRK  1.91
60. YYELLRVCCCELGVNPDQVEKIRK  1.86
61. YQELLRYCCCELGVNPDQVEKIRK  1.79
62. YQELLFVCCCELGVNPDQVEKIRK  1.78
63. IQELLRVCCCELGVNPDQVEKIRK  1.78
64. YQELIRVCCCELGVNPDQVEKIRK  1.77
65. YHELLRVCCCELGVNPDQVEKIRK  1.77
66. YMELLRVCCCELGVNPDQVEKIRK  1.76
67. YQFLLRVCCCELGVNPDQVEKIRK  1.76
68. YQELPRVCCCELGVNPDQVEKIRK  1.75
69. YQELLLVCCCELGVNPDQVEKIRK  1.74
70. YQELLMVCCCELGVNPDQVEKIRK  1.73
71. YIELLRVCCCELGVNPDQVEKIRK  1.73
72. YWELLRVCCCELGVNPDQVEKIRK  1.67
73. YQYLLRVCCCELGVNPDQVEKIRK  1.66
74. YCELLRVCCCELGVNPDQVEKIRK  1.64
75. YQMLLRVCCCELGVNPDQVEKIRK  1.64
76. YQELLRFCCCELGVNPDQVEKIRK  1.61
77. PQELLRVCCCELGVNPDQVEKIRK  1.6
78. YQQLLRVCCCELGVNPDQVEKIRK  1.59
79. YQDLLRVCCCELGVNPDQVEKIRK  1.59
80. YQELLWVCCCELGVNPDQVEKIRK  1.58
81. YSELLRVCCCELGVNPDQVEKIRK  1.57
82. YQILLRVCCCELGVNPDQVEKIRK  1.57
83. YQELLTVCCCELGVNPDQVEKIRK  1.54
84. YQALLRVCCCELGVNPDQVEKIRK  1.52
85. LQELLRVCCCELGVNPDQVEKIRK  1.51
86. YLELLRVCCCELGVNPDQVEKIRK  1.51
87. YQELLIVCCCELGVNPDQVEKIRK  1.49
88. YQELLRGCCCELGVNPDQVEKIRK  1.48
89. YQELLRLCCCELGVNPDQVEKIRK  1.46
90. YFELLRVCCCELGVNPDQVEKIRK  1.44
91. YQELLRRCCCELGVNPDQVEKIRK  1.41
92. WQELLRVCCCELGVNPDQVEKIRK  1.29
93. YQRLLRVCCCELGVNPDQVEKIRK  1.21
94. VQELLRVCCCELGVNPDQVEKIRK  1.15
